The target of assay [1] is FITC-labled GnRH molecule (a peptide) (UniProt P01148). Nature of the assay: Centricon filter release assay: FITC-GnRH that passed into the lower chamber with carrier at 1 mg/100 ml (control without carrier 72.50).
Assay [2] has the same target. Nature of the assay: Centricon filter release assay: FITC-GnRH that passed into the lower chamber with carrier at 1 mg/10 ml (control without carrier 72.50); a lower reading means more retention with the carrier.

The star is where a group is joined. Palmitoyl = CCCCCCCCCCCCCCCC(=O)*

B1: SEQ ID NO:119, Pal-SSPHSY-NH2, gel-forming peptide (peptide)
peptide: Palmitoyl-SSPHSY-NH2
SMILES: CCCCCCCCCCCCCCCC(=O)N[C@@H](CO)C(=O)N[C@@H](CO)C(=O)N1CCC[C@H]1C(=O)N[C@@H](Cc1c[nH]cn1)C(=O)N[C@@H](CO)C(=O)N[C@@H](Cc1ccc(O)cc1)C(N)=O
Take B1: the Fluorescent Reading (average of duplicates) in assay [1] came to 58.4; in assay [2], 9.
